# Results taken from the domain aggregation screens of Martell et al. (2025).
# Assay: soluble fraction after stress (log2 fold change); higher = more stays soluble; pooled small domains, quantitative proteomics
# Conditions: stress: 75 degC
# 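Note: 20 min heating vs room temperature control held 20 min.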
row,Sequence,soluble fraction (log2)
1,HMIDSDENERIKELIKALISETLKSRGVSPEVISDIKERVDRLHNEELPRFAAELKELISRN,-0.0979
2,HMRDRYEYLKELRLYLSPLGRTEEDRVIEYYAELIGDKIESGIPENGVLSQLGTPRELADKILAETQEY,-0.377
3,HMAPNDELTRQVISVLSGTPQQAFNYKQISKKLNINDSSERRMVSNILRELAGKGEIVEVYQGKYRSKAPA,-0.0901
4,HMAENPAYTKGVVNRLYKIRATPYYSYSYNVDQKTYEGRGKQYGEYENLHIGDTITVYYQRSNPSNSEA,-0.288
5,HMNPFPDNTAEVLSQFKNIIVPELNTGQLSKLLRARYLVDTVGINKVEGLPFTAQELEEKIESLINSF,-0.428
6,HMIAAVIAQVANTNERIILEKRYLSFKSWDEIAVEMRISPRWAYTLHERALKAVDQVLSKQNNE,-4.19
7,HMNIIATHTVPAIEQKIRLQEYAISIFPQINSRSALKKAIAKKLVLLDGERASTADWIQPGQKIELLEDK,-1.37
8,HMSTVEKDSELGGNFRIASYPTGKGQISEAIRSMIVRAKQVGVNIRLNTEATEEPLRALAPNAVILATG,0.188
9,HMKKPIYLTIANDIEKKIFNNDYPKNERLPSERNLAEEYGVTRMTIRNSIEYLVSKGLLEKRLGSGNYVKR,-1.55
10,HMAATHYEGIKQDGETDDAVIERVLTGLSVTANKDDIFIVKTLIAGTKYSYTAYVYNGNAWAAM,-1.38
11,HMSKSIEEIYDEAIRSLANEEYDSAKKLFSYLIDNFSDPEKLPLSLFWLGEIEFSSSNFDQSKIHYIE,-0.15
12,HMKNTVGEYRKLKSTTILYSNSDLTGTKYTYLPNTTVKILKNISSTVDYVYIKATNRYAYINIYAYT,-2.69
13,HMPSPEMLKETEKRKAEEIYRSQINLFIDDYHRLKGQYPLLEDIIDNKKDSIPIEILREISISILKNYFE,-0.802
14,HMNSEPKTKLQEIAQERGLAAPVYETTHTGPDHDRIFSASVTVGDVVAAGEARSRKGAESEAAIAAIKALG,0.195
15,HMYQRLPFSFANRYKMVLESQHPERAPILYYVEPLKSAAIIEVSRVVKNGFTPQAITLDEFDKKLTDAYQR,-1.43
16,HMRLARPLTPTEERVLRLLASDMSNAKIGEVLGIRLPTVKSHVSHIMQKLGVTSRAKARTAAQQLGI,-1.21
17,HMRGPTIELLIQKSALYEELDDSENALKEILKAFDRDSLNSDVLNRLVNLLLNDKQIDRAENYNQLLIEK,-0.17
18,HMGVIGADIRALRVSRGWTLSDLAEALDRSVGWLSQVERDVSEPALADIRRIAGIFDLPVSFFFSD,-2.64
19,HMKQHPTIDLQIGQKLHYKEDVFEVTRFAKDKNGQDMVILKDPSIGSGIEIPWYRSKLEEIIESGQYKIT,0.361
20,HMQVSIGERVKLARMSAGLNQRQLGKEMGMSAMAISKYETGEVVPNSRVLIQLSQTLHVPLDFFFRS,-3.04
21,HMASIEPLKTSIRIIWYINGEKDSETLLNTPPTAANKANAQKIADMVEQQIQMGIFNRDAVFPSSPKRQ,-1.75
22,HMIPYQDPLPKGAEESLLSKYPGFEITGVHFVNDTNFIGYKVRLERGEDREEISLDVNGKFL,-0.308
23,HMADVIKLVNTSVLNVRSGAGINYSKIGSLTQGTKVNIISESNGWSKINYNGKIGYISSQYVSEVS,-1.92
24,HMADKHVAAALLKLMDHLVGGRQYAFMKGRLTINKKVVLEATEVSAYRRGTGLSDADWQQRYE,-2.06
25,HMVPDVVGKDYALAQAELEGANLVVAKGSSRYDDTLPAGVVLATDPKVGTVVKPGAKVTVILSK,0.217
26,HMQPGDRVDALIVGVSGEHVFLDVGGKSEGVMAAAELRNEAGELSAAEGDRVQVYLLSNRNGELIFTA,0.205

row,Sequence,soluble fraction (log2)
1,HMTDLEDDEKKVYRLIVESGEGIDFDTLSERSGFSATELPSILLFLMMKEMIDELPGKIYRYSE,-0.0725
2,HMIPSGISEHPISKLPLSMSIIHRLELAGIKTIGDITGENFSRLQEIPRIGKVTAKRILEAIQSYSEQLP,-0.401
3,HMYTVQPHESLWSIAASQLGDGHRFTEIVDLNQELLGGKANFIKPGWVLQIP,-0.362
4,HMFEKIDINFADIHQLKGLPLNSEQINSIIEYRNQNGFIENIYDLKNVNGISIDKVHELKSYIFIIDV,-2.58
5,HMSETTSRVLQLLGLLQARRVWTGQELADRLGVTGRSVRRDIERLRDLGYPVHASKGRDGGYQLGA,-1.61
6,HMQVSDLSAIDSLIDKVLSEQQAAVQDFRSGQGKAMGFLIGKVMQASDGKANPKVIRELMGKKLA,0.0534
7,HMREVSPEDLALMRRIDAWHLEHPFAGARLLRDLLRPEGFQAGRRHIGTLMARMGIEALYRK,-0.383
8,HMASEVEVPNVYGMPSSLAERELSAVGLLADYRSRTGTGQQPGTVVHVKPDAGTVVSRGSTVVLFIA,-0.334
9,HMARSKSRQSSVLESVPGLGPSRRRNLLRHFGGLQGVVKAGVEDLMAVRGISRTLAETVYDHLHPGS,-0.735
10,HMKHRFVVGEVLSIGKLQHEITLKTAQGERKFQLDKQDLPASIQDGAKVRAELNEAGRVIDVHPLK,-0.0848
11,HMGVDMAPESIVGKKGVAATELRPAGKVEIHGQVYDAVSVGMFIKRGTGVKVVRYEAAQIYVEPE,-0.544
12,HMARGTRTRAKLLAAAEVVFARYGYTEASIERITEEAGVGQGTFYLYFASKLEIFEELVDDLNR,-2.88
13,HMQDIDIVDLKRISELIYQKYNYDFRNYAMSSFKRRVQRIIELKKLTVDGLIKRLNDTPSFINEFLDELTV,-0.014
14,HMATTTEPTSPPAATASLEAKINWLFLIFRNKKTVTASEQKFHAEDASTVVGKETLTDDGTTMTKGETAAG,-0.0674
15,HMVVSDKIAFSSFLKSVEDGRVVEVEITGNDIRGILSDGTVFNTYAPNDPNLVEKLTSKGVNITALPKE,0.522
16,HMTYSAFITARNKRIAEEYSVLLDSLNISNNVIYRLGSWVVEVNVSDHSRAIDEIYSYERSGRIDKV,-3.1
17,HMGIKAADIVTNDIQFNTQAQFDKYKDLYPTLGWGNYDPNKTYTMQGFKNKLKPNELFTGTPNLKIEDT,0.486
18,HMGPEAFPVPYIVDIELDRAIYVIEQSGFIVGQKLEANDDNVPRGFVISQNPAAGTKLGPNSVVDLVISSG,-1.18
19,HMDEPADVAIFDGFRQMSEDELKKLYESLNLAMTFKDFLHIQNYFKNEENREPSVTEIRVLDTYWSDH,0.0441
20,HMNFSKEYILVHSYKEIDILDALIVKYEATLVNREFDLFINSYIKINEDYAKLFRDEIISKTSGSMSIKEL,-2.93
21,HMTLDVALSKEIKYMLKEEHYLPGDKLPSERKLAELFHVQRLTVRGALNLLLQDKTIISKPRSGYYVAPKR,-2.88
22,HMTKYREVLRMSAGGFSQRVIASTLSISRNTVASTLKRAREQNLDWEAVEQQRLSEKDIANLLFP,-3.22
23,HMDRERFIKLGREIARAAFENVGKKATDKVLNSAAKKLRLEDGDEVLARLGSAEIEARSVVQAVYPDLI,0.286
24,HMQMMDATLKIPPSMGKLRGTLYELNSVTSEDVDENGQLALHVRLSSVDWQRLKKRFDSNLDELIVQKN,-0.219
25,HMKSVLDDVAGLGPVRKKALLKAMGGFTRLRAASLDDILAVRAVPEEVAREVFAVLAQYNSVRNNDISE,-1.08
26,HMDNFQFIGYSQQQGQIAVAWIKSLDNGRLVRVEVSDSLEGWRVSDISAQGVNLTKGQQWLMLKRL,-1.74

row,Sequence,soluble fraction (log2)
1,HMEEKNNIIVSYIEDKISELEKASMYVPNENKEKLIMAFKNRNEDIDVIKTRIDTIFNNSVAAYKENME,0.557
2,HMSNTGDIIRKLREESGVTAKELAHRIGLSASQMSRLESGKRRINSEVLTRIARALEVAPSQLID,-0.439
3,HMDFDQELFDKIVEATMDEARAAMDTDDKNVREERWNKLIEHWHELFLEDYPEMDKYLEEITYKFQKNPAT,-0.662
4,HMQSYSYYDFQKALQNKTVESVIIEPDKTVPTGTLQIQLKGDTKEELNVSDVTEVEELLQSYDVDYKLRSV,0.0732
5,HMKIDEVSFAYIERTLFSMLGKLPTPVNKVIATIGEEKKETIWEVIRFLESENKLITNEDGTLQL,-2.46
6,HMENPMIEQLKQFIEAQGLTQGQLAAKLGVSTATVNQYLQGKYKGDTAALDAKAAQLMARSREK,0.169
7,HMRLMLITPTEFDEAAEIADNLKDRRAVLMNVEKTDNETARRLIDFLSGVVYALGGKIMRISAQAYVLT,0.00546
8,HMKEIPTKKGDMLEIYEANGKYILKYPTFNITMPEVVKEIPKEAVDSYLAGKHDGEELINYANFGFWKS,-0.0757
9,HMDLDPVEKLHLLSQLYVGQLKGSFVVKEKNQKTTIIGEVRELSHQTLSIRTNEGYRLIEVADILEIRLWE,-0.216
10,HMAAELQALSVRELEVLDQLAGGASNREIAQRLYISENTVRNHVHSILTKLKLQNRTQLVGMT,-0.981
11,HMQVIDNHWRPSRDALDILLRDGISEHFIEDAIPEFILYWRERGTQDSNWNSRFLQHIRLQWARYTNAV,-1.67
12,HMLPRLVLSPGTEVLATVMGKYENGMSLVKISSHLFAMDLPSRVQVGDSLRMTFLHQDARPTFALA,-1.11
13,HMAQVVMPNVVGKTEKDATATLEGKNLKVNVEYNLDATSDDGIVKEQSIKSGENIDEGTEITLKVNKV,-2.27
14,HMDYLSEFITDKVVRADGYSIRKGELSNEFKQWFITNVGTKNPKPKEIHDYMDRKFGKNKNGIWKNVKIKL,-0.492
15,HMSKPVVWIVGDSTVSAFTDNYYYPRYGWGTQIDKYLDGTFEVKNIALSGRSSTSYTADKEYGELIAG,0.293
16,HMGNRQEQVRIIRDLWRQLADAGQPVPAKHLTLDLDALDATQLTKLEDQAHGWLAKLSAQADLADAA,-0.0412
17,HMAAMSLGERIGAHRKRMGISQEELGHRMGVSRQAVSKWETGRAVPDMENLLALARLFGVPVSELAD,-0.129
18,HMSEPQEISYSDFIEQVNRNEIRQVEFDGQHEYLTVIRKDTSRFKVIIPAPDPRLLDDLMEHDVEIVGKE,-0.123
19,HMHLTEAPLIKITYFEADQKKSGGQYITIINHLKKINEYENLLVLENGVKINIDDIYELESV,-0.191
20,HMNWQLITDPKELRELVQKTIADNEAGTSRLREGDMGPLEFLTGIIMKKTRGLADPTMVKALLKEELNI,-0.0208
21,HMQNEKLSYFVTETIVTERADLFITKKFPQFSRSQIQKLINSGNITINSNPIKASTEIINKDNIEITIPV,-2.15
22,HMIDSEEVMETIQDLGYSPVFDVKEKFYKIKEEQIGKITLEVHIILRYGMVDLVWIVRENGELLLG,-0.0952
23,HMGDKRPIAVGDYVKLEGQDTPGQVLSISGKNATVGFGMLKTTVKLDRLRHTMAKPQTGASAGVR,-0.293
24,HMITPKQTAETLGIATSTLRRWASEFEPFLSLRTGVKRTYTTDDITTLKRVKDLFAQGLKTEQVREAL,-0.287
25,HMQDNLKKYMDKLSQRDAELIVYKYLWNMSEKEISEMFHIKQEQVHVYVGRAKKRLFKIIKKEME,-0.425
